Results reported in paper PMC10403523.

Key:
[1] = system: yeast SWI/SNF complex (WT) (Saccharomyces cerevisiae); test: EMSA; conditions: apparent KD, Kd EMSA: 6.7 nM DNA or nucleosome, 1.3-23 nM SWI/SNF, 4% native PAGE (79:1), Methods: prebinding 30 C, 15 min, gel in 0.5x TBE, binding buffer, salt and pH not …
[2] = system: yeast SWI/SNF complex (WT) (Saccharomyces cerevisiae); test: competition; conditions: EMSA competition against 601 DNA; Kd EMSA: 6.7 nM DNA or nucleosome, 1.3-23 nM SWI/SNF, 4% native PAGE (79:1); Methods: prebinding 30 C, 15 min, gel in 0.5x …; binding buffer, salt and pH not
[3] = target: 29N59 mononucleosome: recombinant Xenopus laevis histone octamer on 601 DNA with 29 and 59 bp of flanking DNA (Xenopus laevis); test: native gel or EMSA; apparent KD; 6.7 nM 29N59 nucleosomes, WT or ΔAT SWI/SNF varied from 1.3 to 23 nM; 4% native polyacrylamide gel (79:1)

In the case of 29N59 nucleosome, the Kd ([1]; 6.7 nM nucleosome, recombinant Xenopus laevis histone octamer) is reported as 7.67 nM.

235 bp 601 DNA gave a Kd ([1]; 6.7 nM DNA) of 7.87 nM.

In the case of pUC19 plasmid, the Ki [2] is reported as 12 nM.

Substance “yeast SWI/SNF complex with both AT-hooks of Snf2 deleted (from UniProt P22082 1-1703; P18480 1-905; Q12406 1-477; P09547 1-1314; P18888 1-332)” has a Kd [3] of 20.5 nM.

Work on “yeast SWI/SNF complex, wild type (from UniProt P22082 1-1703; P18480 1-905; Q12406 1-477; P09547 1-1314; P18888 1-332)” yielded a Kd [3] of 7.67 nM.
